According to patent US20250223330A1 (OUTPACE BIO, published 2025):

T1: CD25-Fc (UniProt P01589 22-213, limits assumed)
T1 construct: Bought reagent; The same stock (100 ug/mL aliquots) was used as CD25-Fc in the ELISA and as IL2Ra-Fc on ProA tips in the Octet assay; also called IL2Ra-Fc; CD25 (IL2Ra); not shown: Fc part of the bought fusion
T1 sequence (looked up): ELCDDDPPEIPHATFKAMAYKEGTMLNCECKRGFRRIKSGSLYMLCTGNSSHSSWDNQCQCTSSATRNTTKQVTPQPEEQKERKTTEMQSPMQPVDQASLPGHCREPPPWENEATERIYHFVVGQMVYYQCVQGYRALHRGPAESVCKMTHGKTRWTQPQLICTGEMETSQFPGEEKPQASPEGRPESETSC

T2: IL2Rb/g-Fc (UniProt P14784 27-239; P31785 23-262, limits assumed)
T2 construct: Captured at 12 ug/mL on ProA tips; also called IL-2/15Rβγ; IL-2Rβγ; not shown: Fc part
T2 sequence (looked up) 1: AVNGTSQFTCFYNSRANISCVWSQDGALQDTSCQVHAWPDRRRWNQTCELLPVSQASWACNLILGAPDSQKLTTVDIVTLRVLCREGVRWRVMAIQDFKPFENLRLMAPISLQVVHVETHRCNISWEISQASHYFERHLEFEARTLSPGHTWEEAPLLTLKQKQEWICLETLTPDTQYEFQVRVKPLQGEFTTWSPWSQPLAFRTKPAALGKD
T2 sequence (looked up) 2: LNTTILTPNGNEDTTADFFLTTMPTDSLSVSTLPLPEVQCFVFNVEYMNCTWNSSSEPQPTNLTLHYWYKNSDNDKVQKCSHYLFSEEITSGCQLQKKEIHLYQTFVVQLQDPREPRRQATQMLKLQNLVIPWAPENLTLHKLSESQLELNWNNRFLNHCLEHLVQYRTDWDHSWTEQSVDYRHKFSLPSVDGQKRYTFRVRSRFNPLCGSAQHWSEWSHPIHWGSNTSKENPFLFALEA

B1: SEQ ID NO 19 (designed binder)
chain: APTSSSTKKTQLQLEHLLLDLQMIANALNKLGIESPFLNRWITFCQSNHEDAAKHLQALEEELKPLEEVLNLAQSKNFHLRPRDLISNINVIVLELMGS
notes: ELISA captured STII-tagged protein from supernatant; also called Designed Cytokine No. 19
B2: SEQ ID NO 32 (designed binder)
chain: APTSSSTKKTQLQLEHLLLDLQMILNGINNYKNPKLTRMLTFGGTATIVEFLNRWITACQREADPEALQALEEELKPLEEVLNLAQSKNFHLRPRDLISNINVIVLELMGS
notes: ELISA captured STII-tagged protein from supernatant; also called Designed Cytokine No. 32
B3: SEQ ID NO 29 (designed binder)
chain: APTSSSTKKTQLQLEHLLLDLQMILNALNKLNINDHIVEFLNRWITFCQSATSDPDLLKHLQALEERLKPLEEVLNRAQSKNFHLRPRDLISNINVIVLELKGS
notes: ELISA captured STII-tagged protein from supernatant; also called Designed Cytokine No. 29
B4: SEQ ID NO 35 (designed binder)
chain: APTSSSTKKTQLQLEHLLLDLQMILNGINNYKNPKLTEIDPKLVEFLNRWITFCQTIINGGESATLKHLQALEEELKPLEEVLNLAQSKNFHLRPRDLISNINVIVLELKGS
notes: ELISA captured STII-tagged protein from supernatant; also called Designed Cytokine No. 35
B5: SEQ ID NO 36 (designed binder)
chain: APTSSSTKKTQLQLEHLLLDLQMILNGINNYKNPKLTEIDPKLVEFLNRWITFCQSIINGDESFSLKHLQALEEELKPLEEVLNLAQSKNFHLRPRDLISNINVIVLELKGS
notes: ELISA captured STII-tagged protein from supernatant; also called Designed Cytokine No. 36
B6: SEQ ID NO 37 (designed binder)
chain: APTSSSTKKTQLQLEHLLLDLQMILNGINNYKNPKLTKLDPSLVEFLNRWITFCQSATSDPDLLKHLQALEEELKPLEEVLNLAQSKNFHLRPRDLISNINVIVLELKGS
notes: ELISA captured STII-tagged protein from supernatant; also called Designed Cytokine No. 37
B7: SEQ ID NO 21 (designed binder)
chain: APTSSSTKKTQLQLEHLLLDLQMILNALKKLNINSPMQEFLNRWITFCESNTEDALKHLQALEEELKPLEEVLNLAQSKNFHLRPRDLISNINVIVLELKGS
notes: ELISA captured STII-tagged protein from supernatant; also called Designed Cytokine No. 21
B8: SEQ ID NO 30 (designed binder)
chain: APTSSSTKKTQLQLEHLLLDLQMILNALKKLNINSPMQEFLNRWITFCESNTEDALKHLQALEERLKPLEEVLNRAQSKNFHLRPRDLISNINVIVLELKGS
notes: ELISA captured STII-tagged protein from supernatant; also called Designed Cytokine No. 30
B9: SEQ ID NO 24 (designed binder)
chain: APTSSSTKKTQLQLEHLELDLQMILNLAEVDPTMKEFLNRWITEAQSSNATLKSLQALEEELKPLEEVLNLAQSKNFHLRPRDLISNINVIVLELKGS
notes: ELISA captured STII-tagged protein from supernatant; also called Designed Cytokine No. 24
B10: SEQ ID NO 17 (designed binder)
chain: APTSSSTKKTQLQLEHLLLDLQMILNGMNNGNADPELVEFLNRWITFAQDGSADLKHLQALEEELKPLEEVLNLAQSKNFHLRPRDLISNINVIVLELKGS
notes: ELISA captured STII-tagged protein from supernatant; also called Designed Cytokine No. 17
B11: SEQ ID NO 18 (designed binder)
chain: APTSSSTKKTQLQLEHLLLDLQMILNGINNMNADPELVEFLNRWITFAQDGSADLKHLQALEEELKPLEEVLNLAQSKNFHLRPRDLISNINVIVLELKGS
notes: ELISA captured STII-tagged protein from supernatant; also called Designed Cytokine No. 18
B12: SEQ ID NO 20 (designed binder)
chain: APTSSSTKKTQLQLEHLLLDLQMIANALNKLGIESPFLNRWITFCQSVISASDDTREELKHLQALEEELKPLEEVLNLAQSKNFHLRPRDLISNINVIVLELKGS
notes: ELISA captured STII-tagged protein from supernatant; also called Designed Cytokine No. 20
B13: SEQ ID NO 27 (designed binder)
chain: APTSSSTKKTQLQLEHLLLDLQMILNGINNMNADPELVEFLNRWITFCQSLIKKGSNEDLKHLQALEERLKPLEEVLNRAQSKNFHLRPRDLISNINVIVLELKGS
notes: ELISA captured STII-tagged protein from supernatant; also called Designed Cytokine No. 27
B14: SEQ ID NO 33 (designed binder)
chain: APTSSSTKKTQLQAEHLLLDLQMILNGINNYKNPKLTRMLTFGGTATIVEFLNRWITFCESGADEEAAKSLQALEEELKPLEEVLNLAQSKNFHLRPRDLISNINVIVLELKGS
notes: ELISA captured STII-tagged protein from supernatant; also called Designed Cytokine No. 33
B15: SEQ ID NO 38 (designed binder)
chain: APTSSSTKKTQLQLEHLLLDLQMILNGINNMNADPELVEFLNRWITFCQTAISTGKDNLKHLQALEEELKPLEEVLNLAQSKNFHLRPRDLISNINVIVLELKGS
notes: ELISA captured STII-tagged protein from supernatant; also called Designed Cytokine No. 38
B16: SEQ ID NO 28 (designed binder)
chain: APTSSSTKKTQLQLEHLLLDLQMILNGAEVDPKIKEFLNRWITFCQSVIKANKDTREELKHLQALEERLKPLEEVLNRAQSKNFHLRPRDLISNINVIVLELKGS
notes: ELISA captured STII-tagged protein from supernatant; also called Designed Cytokine No. 28
B17: SEQ ID NO 26 (designed binder)
chain: APTSSSTKKTQLQLEHLLLDLQMILNFPVDSEMVEFLNRWITFAEKGTEDALKELQALEEELKPLEEVLNLAQSKNFHLRPRDLISNINVIVLELKGS
notes: ELISA captured STII-tagged protein from supernatant; also called Designed Cytokine No. 26
B18: SEQ ID NO 25 (designed binder)
chain: APTSSSTKKTQLQLEHLLLDLQMILNFPVDSEMVEFLNRWITFAEKGTEDANKELQALEEELKPLEEVLNLAQSKNFHLRPRDLISNINVIVLELKGS
notes: ELISA captured STII-tagged protein from supernatant; also called Designed Cytokine No. 25
B19: SEQ ID NO 23 (designed binder)
chain: APTSSSTKKTQLQLEHLLLDLQMILNFPVDSEMVEFLNRWITFAQKGDESALKHLQALEEELKPLEEVLNLAQSKNFHLRPRDLISNINVIVLELKGS
notes: ELISA captured STII-tagged protein from supernatant; also called Designed Cytokine No. 23
B20: SEQ ID NO 31 (designed binder)
chain: APTSSSTKKTQLQLEHLLLDLQMILNFPVDSEMVEFLNRWITFAEKGTEDALKELQALEERLKPLEEVLNRAQSKNFHLRPRDLISNINVIVLELKGS
notes: ELISA captured STII-tagged protein from supernatant; also called Designed Cytokine No. 31
B21: SEQ ID NO 22 (designed binder)
chain: APTSSSTKKTQLQLEHLLLDLQMILNLAEVDPTMKEFLNRWITFCESNSESALKHLQALEEELKPLEEVLNLAQSKNFHLRPRDLISNINVIVLELKGS
notes: ELISA captured STII-tagged protein from supernatant; also called Designed Cytokine No. 22
B22: SEQ ID NO 34 (designed binder)
chain: APTSSSTKKTQLQLEHLLLDLQMILNGINNYKNPKLTEIDPKLVEFLNRWITFCQSAIKSGSNTAKELQALEEELKPLEEVLNLAQSKNFHLRPRDLISNINVIVLELAGS
notes: ELISA captured STII-tagged protein from supernatant; also called Designed Cytokine No. 34
B23: Designed Cytokine No. 153 (designed binder)
chain: APTSSSTKKTQLQLEHLLLDLQMILNGINNMNADPELVEFLNRWITFCQSIISTGSVDPEELAKELQKLEEELKPLEEVLNLAQSKNFHLRPRDLISNINVIVLELKGSGSGNWSHPQFEK
notes: also called Design 3
B24: Designed Cytokine No. 169 (designed binder)
chain: APTSSSTKKTQLQLEHLLLDLQMILNGINNMNADPELVEFLNRWITFCQSIISTGSLEDLKHLQALEEELKPLEEVLNLAQSKNFHLRPRDLISNINVIVLELKGSGSGNWSHPQFEK
notes: also called Design 1
B25: Designed Cytokine No. 39 (designed binder)
chain: APTSSSTKKTQLQLEHLLLDLQMILNGINNMNADPELVEFLNRWITFCQSLIKKGSNEDLKHLQALEEELKPLEEVLNLAQSKNFHLRPRDLISNINVIVLELKGSGSGGSGNWSHPQFEK
B26: Designed Cytokine No. 40 (designed binder)
chain: APTSSSTKKTQLQLEHLLLDLQMILNGINNGNADPELVEFLNRWITFCQSLIKKGSNEDLKHLQALEEELKPLEEVLNLAQSKNFHLRPRDLISNINVIVLELKGSGSGGSGNWSHPQFEK

What follows are molecules tested against T1, CD25-Fc (assay: ELISA, STII-tagged cytokine captured on Strep-Tactin plate, CD25-Fc detected (FIG. 5A)). Details: not given.
B1: no binding.
B2: no binding.
B3: no binding.
B4: no binding.
B5: no binding.
B6: no binding.
B7: no binding.
B8: no binding.
B9: no binding.
B10: no binding.
B11: no binding.
B12: no binding.
B13: no binding.
B14: no binding.
B15: no binding.
B16: no binding.
B17: no binding.
B18: no binding.
B19: no binding.
B20: no binding.
B21: no binding.
B22: no binding.

What follows are molecules tested against CD25-Fc (UniProt P01589) (assay: BLI). Details: ligand.
In the case of WT IL-2 (from UniProt P60568 21-153), the Kd is reported as 20 nM.

What follows are molecules tested against T2, IL2Rb/g-Fc (assay: Octet (BLI), IL2Rb/g-Fc captured on ProA tips, cytokine in solution). Details: not given.
Molecule B23 has a Kd of 3.9 nM.
Molecule B24 has a Kd of roughly 1.6 nM.

What follows are molecules tested against T1, CD25-Fc (assay: ELISA, STII-tagged cytokine captured on Strep-Tactin plate, CD25-Fc detected). Details: not given.
B25: no binding.
B26: no binding.
